Source: the DeepSol protein solubility set

Experiment: soluble on expression in E. coli; label from the status in PepcDB or PDB records

Sequence | soluble on expression in E. coli
GPGSPPSDPRSLHFYNPYHPNSYIRAMLAVSNVVQEYDSDGMFPVYGFGAVAPFTNGTSHFFPLSGNPSNAYLNGMQAVVDTYAGLLPMLQFSGPTNFAPTIRTITDGARRLRGVYTILLILTDGTITDMQDTIDAIVAADDAPLSIVIIGIGRADFSAMVQLDGDGGVLRDRSNRPARRDLVQFVSFSEFEGKNPARLAAAVLLEIPKQVEVWGRIVHATPGHF | not soluble
AMKNYYSSNPTFYLGIDCIIFGFNEGEISLLLLKRNFEPAMGEWSLMGGFVQKDESVDDAAKRVLAELTGLENVYMEQVGAFGAIDRDPGERVVSIAYYALININEYDRELVQKHNAYWVNINELPALIFDHPEMVDKAREMMKQKASVEPIGFNLLPKLFTLSQLQSLYEAIYGEPMDKRNFRKRVAEMDFIEKTDKIDKLGSKRGAALYKFNGKAYRKDPKFKL | soluble
MGSDKIHHHHHHMKQPNYYQDVKQFHQTFHHPGADQPTAIPLDRGVKRATWTAEEAVVEFLHQSSQNETEFLAAIETFKAGLDQAVKKSLKETYPVTEVERLVGQGDALTDALYFIMGSFVEAGLEPGPLFEIVQQANMAKLGPDGQPIFRESDQKVMKPDGWLPPEPQLEAEVVRQMKEKA | not soluble
MSIVLSADHKDALQEFMNISMGRAASKLATLLNLHVTISVPNIRVATEEDMRALQSYAADYYYTRQSFYGGMDGELITLMSRCGCEQVVNDLNHSKGMADGLVSIEESILDISNILSGASLKGLCQQIELKTKIQPPVIFDPTHQPLPILQWRLSLIMEINFLVEKASFSAKTIICFADKELDKVFAHLDELLM | not soluble
MGSDKIHHHHHHMEETNEMKDSKHLISNIQSQYTRLSKGQKLIAQYILNNYDKVAFMTACKLGETVGVSESTVVRFANALGYSGYPKLQAALQELIKNKLTTVQRVEMAHDYSDDFAILNKVLKSDIDNIRSTLEEIDERAFKEASNKLLRARKIYILGMRSSFVVAQYLGFYLDIILDNVHIIRMDMGDAFEQIVRINEEDVIVAISFPRYSKKSYQIVNYAKEKGAHVISLTDSLFAPVASLADNTLLVKSNMASFVDSLVPALSISNALAISVGMKEKEDIKQHFDDLEQIWKRYSVYE | not soluble
MSLAAHYLDFERPIADLESKIEELSRLSETAGPGAFDTEIQALRDRAQELRKEAYANLDAWQKTMVARHPQRPHLRDYVAGLIDEFVELRGDRKFADDQAIVGGLGRFRGQPVVVMGHEKGHDTTTRLKHNFGMARPEGYRKAVRLMDMAERFNLPVITFVDTAGAYPGLGAEERGQAEAIARSTERCLTLGVPMVATIVGEGGSGGAIALAGANRVLILEHSIYSVISPEGAASILWRDGARAKDAATQMRITAQDLIKLGIVDRIVEEPAGGAHSDTEAAIQAVGDAVEDELKAMAAMSPAELKKQRSDRFYAIGREGHHHHHH | soluble
RVEVGGSGDAAAVLGLGAVLQGQGQGTSPSPSGLRPQPEAALPPLERLPKPVLVQVASRCRRNDSRSPTHRKITRGAVGLFHPQLYLSGGNCIECGNEMMSRGKFERLAGTATAKWHVSIKVLPSGVTLGKWLQQHGLPILQGEPRQWRRPRCPCATSCAARCRRASNRRK | not soluble
AKDDKVTVLSIERGNKLVYLEKLGLRGDQFYYKIERIRESNGVVYIYHTSYIPEQYINANYPNLEYYSSIYNRFKLDYHIHMNDEHFEEINEIVFPTPEHAASVLGVDEQFPTVLQTKITKLESTGQVLEYSETYKRSDYYK | soluble
MGSDKIHHHHHHMIVLIGGEKGGSGKSCLAQNIAVFLTTECNASVIMVDCDPQRTTSDWIQARNNNPKLASINCVQLYGKIRNDLLSLEQHYDVVIVDCGGQDNLALRATMSVAAYILMPLRPKRRDLKTVCHMDDIVATCKMINPKLRASFVITQCPNLPNQANRILEAKEVCKTYDINVLDAITYCRNVYDDSEESGLSVIEIDPNGKAADEIRTIACELFQVDCAANLEDRLHPALLAQSAGKGQMHNGLTNSGLTNNGLLNNGLLHQTQPTHLNTKQRGQNGTQRPQEKRYAI | not soluble
